Experiment [1] addresses T1, hCIS-SH2-BC complex (recombinant trimeric complex of human GST-CIS-SH2 construct with Elongins B and C) (UniProt Q9NSE2 66-258; Q15370 1-118; Q15369 17-112). Description: ITC.
Experiment [2] has as its target T1, hCIS-SH2-BC complex (recombinant …). Description: ITC. This is another data set of the same source. On the technique in general: In ITC the heat of successive injections is recorded.

Like-named read-outs stand apart in the source and are kept apart here. Non-standard residues stand in square brackets, D forms with d. No end group written: not given here. pY = N[C@@H](Cc1ccc(OP(=O)(O)O)cc1)C(=O)O

VYFTYDP[pY]SEEDPDEG [phosphopeptide corresponding to Tyr361 within the IL-2Rβ (printed 'IL-2R13') cytoplasmic domain]: the Kd in experiment [1] and in experiment [2] was 1500 nM each time.
As to EIEACQV[pY]FTYDPYSE [phosphopeptide corresponding to Tyr355 within the IL-2Rβ (printed 'IL-2R13') cytoplasmic domain], the Kd in experiment [1] and in experiment [2] was 940 nM throughout.
For LSGEDDA[pY]CTFPSRDD [phosphopeptide corresponding to Tyr392 within the IL-2Rβ (printed 'IL-2R13') cytoplasmic domain], the dissociation constant (Kd) in experiment [1] and in experiment [2] was 1800 nM each time.

One may read the Kd as the free concentration of one partner at which half of the binding sites on the other are occupied at equilibrium, for simple one-to-one binding.

Source of the values: patent US20230192857A1 (published 2023).
